Experimental data as given in the supplement of paper PMC10567573.

B1: TRIM43 (parent)
chain: NRFRVEISFHFEVTNHNIRLFEDV
B2: AUP1 (parent)
chain: EGLLRFSSWPFSIQDVVQPLTLQV

Variants of: B1
Assay: protein stability index of a GFP-peptide fusion (GPS, HEK-293T) (PSI 1-6); higher = more stable
Settings: c terminus: a fixed tail appended
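Further: lentivirally expressed fusions sorted by FACS into six bins by GFP to DsRed ratio, PSI derived from sequencing read proportions per bin multiplied by bin number.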

Variant	protein stability index
NRFRVEISFHFEVTNHNIRFFEDV	3.05
NRFRVEISFHFEVTNHNIRRFEDV	3.74
NRFRVEISFHFEVTNHNIRQFEDV	3.28
NRFRVEISFHFEVTNHNIRYFEDV	2.13
NRFRVEISFHFEVTNHNIRVFEDV	4.23
NRFRVEISFHFEVTNHNIRLWEDV	2
NRFRVEISFHFEVTNHNIRLCEDV	2.67
NRFRVEISFHFEVTNHNIRLYEDV	3.98
NRFRVEISFHFEVTNHNIRLLEDV	2.29
NRFRVEISFHFEVTNHNIRLQEDV	3.09
NRFRVEISFHFEVTNHNIRLPEDV	1.76
NRFRVEISFHFEVTNHNIRLEEDV	2.31
NRFRVEISFHFEVTNHNIRLREDV	1.88
NRFRVEISFHFEVTNHNIRLFEDK	2.85
NRFRVEISFHFEVTNHNIRLFEDI	2.14
NRFRVEISFHFEVTNHNIRLFEDH	4.23
NRFRVEISFHFEVTNHNIRLFEDT	2.44
NRFRVEISFHFEVTNHNIRLFEDL	1.95
NRFRVEISFHFEVTNHNIRLFEDF	2.43
NRFRVEISFHFEVTNHNIRLFEDQ	3.09
NRFRVEISFHFEVTNHNIRLFDDV	2.4
NRFRVEISFHFEVTNHNIRLFPDV	2.14
NRFRVEISFHFEVTNHNIRLFKDV	2.02

Variant	protein stability index
NRFRVEISFHFEVTNHNIRLFLDV	2.29
NRFRVEISFHFEVTNHNIRLFTDV	2.66
NRFRVEISFHFEVTNHNIRLFQDV	2.31
NRFRVEISFHFEVTNHNIRLFHDV	3.18
NRFRVEISFHFEVTNHNIRLFEIV	3.66
NRFRVEISFHFEVTNHNIRLFEMV	2.12
NRFRVEISFHFEVTNHNIRLFEYV	2.39
NRFRVEISFHFEVTNHNIRLFENV	2.91
NRFRVEISFHFEVTNHNIRLFEFV	3.88
NRFRVEISFHFEVTNHNIRLFEEV	2.56
NRFRVEISFHFEVTNHNIRLFEQV	2.92
NRFRVEISFHFEVTNHNIRLFEKV	1.95
NRFRVEISFHFEVTNHNIRLFEGV	3.13
NRFRVEISFHFEVTNHFIRLFEDV	2.85
NRFRVEISFHFEVTNHQIRLFEDV	3.45
NRFRVEISFHFEVTNHCIRLFEDV	3.65
NRFRVEISFHFEVTNHKIRLFEDV	2.61
NRFRVEISFHFEVTNHDIRLFEDV	4.85
NRFRVEISFHFEVTNHRIRLFEDV	2.53
NRFRVEISFHFEVTNHIIRLFEDV	1.37
NRFRVEISFHFEVTNHNIQLFEDV	2.14
NRFRVEISFHFEVTNHNIDLFEDV	3.62
NRFRVEISFHFEVTNHNIPLFEDV	1.69

Variant	protein stability index
NRFRVEISFHFEVTNHNIYLFEDV	3.54
NRFRVEISFHFEVTNHNIILFEDV	2.06
NRFRVEISFHFEVTNHNIHLFEDV	3.79
NRFRVEISFHFEVTNHNISLFEDV	3.39
NRFRVEISFHFEVTNHNERLFEDV	2.9
NRFRVEISFHFEVTNHNKRLFEDV	1.47
NRFRVEISFHFEVTNHNYRLFEDV	3.23
NRFRVEISFHFEVTNHNGRLFEDV	2.43
NRFRVEISFHFEVTNHNVRLFEDV	2.97
NRFRVEISFHFEVTNHNHRLFEDV	3.18
NRFRVEISFHFEVTNHNCRLFEDV	4.6
NRFRVEISFHFEVTNHNDRLFEDV	1.3
NRFRVEISFHFEVTNHNQRLFEDV	3.52
NRFRVEISFHFEVTNHNPRLFEDV	3.07
NRFRVEISFHFEVTNHNTRLFEDV	2.09
NRFRVEISFHFEVTNHNSRLFEDV	2.35
NRFRVEISFHFEVTNHNWRLFEDV	3.01
NRFRVEISFHFEVTNLNIRLFEDV	1.82
NRFRVEISFHFEVTNSNIRLFEDV	2.05
NRFRVEISFHFEVTNYNIRLFEDV	2.9
NRFRVEISFHFEVTNVNIRLFEDV	1.07
NRFRVEISFHFEVTNRNIRLFEDV	4.01
NRFRVEISFHFEVTNCNIRLFEDV	3.06

Variants of: B2
Assay: as above
Settings: c terminus: a fixed tail appended

Variant	protein stability index
EGLLRFSSWPFSITDVVQPLTLQV	1.79
EGLLRFSSWPFSIYDVVQPLTLQV	3.36
EGLLRFSSWPFSIRDVVQPLTLQV	2.64
EGLKRFSSWPFSIQDVVQPLTLQV	1.19
EGLDRFSSWPFSIQDVVQPLTLQV	2.08
EGLIRFSSWPFSIQDVVQPLTLQV	3.16
EGLGRFSSWPFSIQDVVQPLTLQV	4
EGLSRFSSWPFSIQDVVQPLTLQV	1.27
EGLCRFSSWPFSIQDVVQPLTLQV	3.27
EGLNRFSSWPFSIQDVVQPLTLQV	1.52
EGLLRFSSWGFSIQDVVQPLTLQV	1.88
EGLLRFSSWAFSIQDVVQPLTLQV	3.01
EGLLRFSSWMFSIQDVVQPLTLQV	2.26
EGLLRFSSWNFSIQDVVQPLTLQV	2.05
EGLLRFSSWTFSIQDVVQPLTLQV	2.79
EGLLRFSSWIFSIQDVVQPLTLQV	1.55
EGLLRFSSWYFSIQDVVQPLTLQV	3.85
EGLLRFSSWHFSIQDVVQPLTLQV	4
EGLLRFSSWDFSIQDVVQPLTLQV	2.04
EGLLRFSSWVFSIQDVVQPLTLQV	3.54
EGLLRFSSWPSSIQDVVQPLTLQV	3.39
EGLLRFSSWPPSIQDVVQPLTLQV	2.46
EGLLRFSSWPNSIQDVVQPLTLQV	1.85
EGLLRFSSWPGSIQDVVQPLTLQV	1.05

Variant	protein stability index
EGLLRFSSWPRSIQDVVQPLTLQV	1.7
EGLLRFSSWPKSIQDVVQPLTLQV	1.78
EGLLRFSSWPMSIQDVVQPLTLQV	2.22
EGLLRFSSWPDSIQDVVQPLTLQV	1.04
EGLLRFSSWPTSIQDVVQPLTLQV	2.46
EGLLRFSSWPQSIQDVVQPLTLQV	1.73
EGLLRFHSWPFSIQDVVQPLTLQV	2.13
EGLLRFYSWPFSIQDVVQPLTLQV	3.72
EGLLRFRSWPFSIQDVVQPLTLQV	1.33
EGLLRFISWPFSIQDVVQPLTLQV	3.04
EGLLRFMSWPFSIQDVVQPLTLQV	2.94
EGLLRFPSWPFSIQDVVQPLTLQV	2.2
EGLLRFNSWPFSIQDVVQPLTLQV	2.32
EGLLRFWSWPFSIQDVVQPLTLQV	1.83
EGLLRFDSWPFSIQDVVQPLTLQV	2.32
EGLLRDSSWPFSIQDVVQPLTLQV	1.46
EGLLRVSSWPFSIQDVVQPLTLQV	1.73
EGLLRTSSWPFSIQDVVQPLTLQV	1.06
EGLLRESSWPFSIQDVVQPLTLQV	1.36
EGLLRWSSWPFSIQDVVQPLTLQV	2.94
EGLLRASSWPFSIQDVVQPLTLQV	1.15
EGLLRHSSWPFSIQDVVQPLTLQV	1.34
EGLLRYSSWPFSIQDVVQPLTLQV	1.33
EGLLRKSSWPFSIQDVVQPLTLQV	1.7

Variant	protein stability index
EGLLRSSSWPFSIQDVVQPLTLQV	1.24
EGLLRLSSWPFSIQDVVQPLTLQV	2.09
EGLLRNSSWPFSIQDVVQPLTLQV	1.4
EGLLRPSSWPFSIQDVVQPLTLQV	2.07
EGLLRQSSWPFSIQDVVQPLTLQV	1.65
EGLLRFSSWPFSIQEVVQPLTLQV	3.9
EGCLRFSSWPFSIQDVVQPLTLQV	4.98
EGPLRFSSWPFSIQDVVQPLTLQV	2.44
EGELRFSSWPFSIQDVVQPLTLQV	2.41
EGTLRFSSWPFSIQDVVQPLTLQV	4.12
EGALRFSSWPFSIQDVVQPLTLQV	1.76
EGDLRFSSWPFSIQDVVQPLTLQV	1.83
EGVLRFSSWPFSIQDVVQPLTLQV	2.22
EGKLRFSSWPFSIQDVVQPLTLQV	2.2
EGLLDFSSWPFSIQDVVQPLTLQV	1.73
EGLLMFSSWPFSIQDVVQPLTLQV	1.56
EGLLEFSSWPFSIQDVVQPLTLQV	4.2
EGLLFFSSWPFSIQDVVQPLTLQV	3.67
EGLLSFSSWPFSIQDVVQPLTLQV	2.64
EGLLGFSSWPFSIQDVVQPLTLQV	3.46
EGLLKFSSWPFSIQDVVQPLTLQV	1.37
EGLLTFSSWPFSIQDVVQPLTLQV	3.1
EGLLWFSSWPFSIQDVVQPLTLQV	3.31
EGLLRFSSDPFSIQDVVQPLTLQV	1.58

Variant	protein stability index
EGLLRFSSAPFSIQDVVQPLTLQV	3.6
EGLLRFSSSPFSIQDVVQPLTLQV	1.73
EGLLRFSSCPFSIQDVVQPLTLQV	3.91
EGLLRFSSTPFSIQDVVQPLTLQV	1.86
EGLLRFSSLPFSIQDVVQPLTLQV	2.97
EGLLRFSSEPFSIQDVVQPLTLQV	1.66
EGLLRFSSQPFSIQDVVQPLTLQV	2
EGLLRFSSYPFSIQDVVQPLTLQV	3.88
EGLLRFSSNPFSIQDVVQPLTLQV	1.42
EGLLRFSSRPFSIQDVVQPLTLQV	1.48
EGLLRFSSPPFSIQDVVQPLTLQV	1.28
EGLLRFSSIPFSIQDVVQPLTLQV	2.27
EGLLRFSSKPFSIQDVVQPLTLQV	2.62
EGLLRFSSMPFSIQDVVQPLTLQV	2.45
IGLLRFSSWPFSIQDVVQPLTLQV	1.02
CGLLRFSSWPFSIQDVVQPLTLQV	3.48
PGLLRFSSWPFSIQDVVQPLTLQV	1.82
TGLLRFSSWPFSIQDVVQPLTLQV	1.8
YGLLRFSSWPFSIQDVVQPLTLQV	2.78
NGLLRFSSWPFSIQDVVQPLTLQV	2.31
MGLLRFSSWPFSIQDVVQPLTLQV	1.43
RGLLRFSSWPFSIQDVVQPLTLQV	4.19
SGLLRFSSWPFSIQDVVQPLTLQV	2.31
EGLLRFSSWPFSDQDVVQPLTLQV	1.86

Variant	protein stability index
EGLLRFSSWPFSKQDVVQPLTLQV	2.53
EGLLRFSSWPFSFQDVVQPLTLQV	3.26
EGLLRFSSWPFSCQDVVQPLTLQV	1.56
EGLLRFSSWPFSTQDVVQPLTLQV	2.84
EGLLRFSSWPFSEQDVVQPLTLQV	1.22
EGLLRFSSWPFSWQDVVQPLTLQV	1.29
EGLLRFSSWPFSHQDVVQPLTLQV	1.94
EGLLRFSSWPFSRQDVVQPLTLQV	2.4
EGLLRFSTWPFSIQDVVQPLTLQV	2.62
EGLLRFSEWPFSIQDVVQPLTLQV	2.23
EGLLRFSCWPFSIQDVVQPLTLQV	2.25
EGLLRFSGWPFSIQDVVQPLTLQV	2.57
EGLLRFSAWPFSIQDVVQPLTLQV	2.17
EGLLRFSFWPFSIQDVVQPLTLQV	3.08
ECLLRFSSWPFSIQDVVQPLTLQV	3.51
EHLLRFSSWPFSIQDVVQPLTLQV	3.65
ERLLRFSSWPFSIQDVVQPLTLQV	2.83
EELLRFSSWPFSIQDVVQPLTLQV	2.63
EGLLRFSSWPFMIQDVVQPLTLQV	3.22
EGLLRFSSWPFHIQDVVQPLTLQV	2.25
EGLLRFSSWPFDIQDVVQPLTLQV	1.95
EGLLRFSSWPFPIQDVVQPLTLQV	2.66
EGLLRFSSWPFGIQDVVQPLTLQV	2.04
